{"source": "patent US20250346877", "about": "“[…] MEGANUCLEASES HAVING […] FOR A RECOGNITION SEQUENCE IN THE […] B VIRUS GENOME” (Precision BioSciences, Inc., published 2025)", "molecules": {"B1": {"name": "HBV 11-12 recognition sequence (dsDNA)", "DNA 1": "TGCCGATCCATACTGCGGAACT", "DNA 2": "AGTTCCGCAGTATGGATCGGCA"}}, "key": {"[1]": {"tested_on": "T1, HBV 11-12L.1090QE Linker1923(1/2) meganuclease (synthetic (I-CreI derived))", "T1 sequence": "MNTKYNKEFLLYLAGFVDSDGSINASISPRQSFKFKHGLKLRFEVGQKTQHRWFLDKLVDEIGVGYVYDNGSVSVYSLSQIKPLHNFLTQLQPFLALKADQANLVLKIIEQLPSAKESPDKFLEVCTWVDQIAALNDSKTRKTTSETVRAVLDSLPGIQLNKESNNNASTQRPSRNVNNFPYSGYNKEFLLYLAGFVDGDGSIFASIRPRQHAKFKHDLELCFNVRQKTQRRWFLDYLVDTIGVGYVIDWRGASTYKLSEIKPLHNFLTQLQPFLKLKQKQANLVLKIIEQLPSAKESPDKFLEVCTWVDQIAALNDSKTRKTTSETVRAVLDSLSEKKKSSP", "assay": "cell_activity", "conditions": "off-target, HepG2-sAg, 100 ng mRNA, below LOD; 0.2% in naive PHH at 500 ng"}, "[2]": {"tested_on": "T2, HBV 11-12L.1090QQ Linker1 meganuclease (synthetic (I-CreI derived, Chlamydomonas reinhardtii))", "T2 sequence": "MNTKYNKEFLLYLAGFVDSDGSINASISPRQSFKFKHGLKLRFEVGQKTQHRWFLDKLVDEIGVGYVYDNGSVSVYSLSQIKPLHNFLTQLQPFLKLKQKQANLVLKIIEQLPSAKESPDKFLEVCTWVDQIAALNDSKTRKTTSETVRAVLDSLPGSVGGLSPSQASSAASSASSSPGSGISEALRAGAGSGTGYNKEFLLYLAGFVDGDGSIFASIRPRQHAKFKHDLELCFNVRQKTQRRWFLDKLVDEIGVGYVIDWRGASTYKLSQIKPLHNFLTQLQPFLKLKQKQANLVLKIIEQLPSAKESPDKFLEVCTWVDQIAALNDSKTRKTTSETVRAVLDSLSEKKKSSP", "assay": "cell_activity", "conditions": "off-target, HepG2-sAg, 100 ng mRNA; on-target about 60%"}, "[3]": {"tested_on": "T3, HBV 11-12L.1090QQ Linker1923(1/2) meganuclease (synthetic (I-CreI derived))", "T3 sequence": "T1 sequence with E260Q", "assay": "cell_activity", "conditions": "off-target, HepG2-sAg, 100 ng mRNA; on-target about 60%"}, "[4]": {"molecular_target": "T4, HBV 11-12L.1090QE Linker1923(1/2) meganuclease (synthetic (I-CreI derived))", "T4 chain": "T1 sequence", "assay": "cell_activity; indel formation in HepG2-sAg, day 2; EC90 23.93 ng", "conditions": "tags: SV40 NLS (N- and C-terminal in pRNA8), mRNA-delivered"}, "[5]": {"molecular_target": "T5, HBV 11-12L.1090QQ Linker1923(1/2) meganuclease (synthetic (I-CreI derived))", "T5 chain": "T1 sequence with E260Q", "assay": "cell_activity; indel formation in HepG2-sAg, day 2; EC90 4.93 ng", "conditions": "tags: SV40 NLS (N- and C-terminal in pRNA8), mRNA-delivered"}}, "note": "Where a chain is given by its changes, count along the chain named."}
{"molecule": "top off-target site Chr17:17242769", "values": [{"measurement": "activity", "setting": "[1]", "value": "< 0.2", "unit": "% editing"}, {"measurement": "activity", "setting": "[2]", "value": 0.5, "unit": "% editing"}, {"measurement": "activity", "setting": "[3]", "value": 2, "unit": "% editing"}]}
{"molecule": "B1", "values": [{"measurement": "EC50", "setting": "[4]", "value": 2.3, "unit": "ng mRNA"}, {"measurement": "EC50", "setting": "[5]", "value": 0.26, "unit": "ng mRNA"}]}
